Laboratory results published in patent publication US7318921B2, “Therapeutic compositions that alter the immune response” (AltaRex Medical Corp., priority 1996, dated 2008).

Tests used:
[1] = target: T1, CA125 (Homo sapiens, UniProt Q8WXI7); experiment: in vitro studies, method not stated
[2] = target: T1, CA125; experiment: Inhibition of binding of patients' anti-CA125 antibodies to CA125 (solid phase); classification Ab3/Ab1c; details: inhibitor at 10500 U/ml
Protocol: Anti-CA 125 positive samples were tested for inhibition of their binding to CA 125 (solid phase) by CA 125, MAb-B43.13 scFv, MAb-B27.1 F(ab′), or MAb M11 F(ab′). Single chain MAb-B43.13, F(ab′) MAb-B27.1, and F(ab′) M11 were used in the inhibition studies to avoid non-specific inhibition of the Fc portion of the antibody and cross-reactivity due to HAMA. To be considered to be significant, inhibition had to be at least 15%.
Thus, if the patients serum contained anti-CA125 antibodies that were inhibitable by MAb-B43.13 only, it was classified as containing Ab3; those inhibitable by MAb-B27.1 were classified as Ab1c. In other words, injecting a binding agent such as an antibody against a single epitope on a multi-epitopic antigen leads to generation of a humoral and cellular response against a different epitope on the antigen.
Method: 86 ovarian cancer patients with active disease were tested for the presence of antibodies against CA125. None of the patients had antibodies against CA125 before injection of MAb-B43.13. The patients were injected with 2 mg of MAb-B43.13 at varying time intervals (e.g., see Table 5 for some of the patients). Sera from these patients were analyzed for the presence of human anti-CA125 antibodies by their ability to bind to the CA125 [R. Madiyalakan et al, Hybridoma, 14:199-203 1995)]. […]

[3] = tested on: CA125 specific mouse T-cells; experiment: Proliferation of CA125 specific T-cells with stimulated peritoneal macrophages ([3H]-thymidine uptake); type: cell-based; details: macrophages stimulated with agent, presented to CA125 specific mouse T-cells; 1 μug/ml of the antibody and 100 Units/ml CA125; mean of three experiments
Source text: Enhanced antigen-presentation of antigen-antibody complexes was attributed to facilitated antigen uptake via the Fcγ-receptor (macrophages, dendritic cells) or membrane-bound Ig (B cells) on professional antigen-presenting cells (APC). […] Accordingly, various professional APC can be involved in the preferential presentation of the CA125-MAb-B43.13 complex. We tested B cells with two different specificities as well as macrophages as APC: CA125-specific B cells (from mice immunized with CA125) and anti-MAb-B43.13-specific B cells (from mice immunized with MAb-B43.13). Normal B cells served as control. […] Enhanced presentation of immune complexes by macrophages and dendritic cells is mediated by preferential uptake via the FcγR. FIG. 4 confirms that CA125 is presented more efficiently by macrophages, if complexed with an antigen specific antibody.
Better cellular immune response was observed when the UV exposed antibody was presented in association with the antigen to T-cells. Thus, macrophages isolated from mouse peritoneal cavities were stimulated with native B43.13 or UV exposed B43.13 in association with CA125 and presented to CA125 specific mouse T-cells isolated from mice injected with CA125. Control experiments included stimulation of the macrophages without the antigen. […]

[4] = tested on: FcγR; details: complexed with anti-tetanus toxoid IgG; measured by TH cell activation; cited from earlier work

## MAb-B43.13 (antibody)
[1]
  binding capacity (units of CA 125 per 1 ng of MAb-B43.13): 10

## CA125: soluble multi-epitopic tumor associated antigen of epithelial ovarian cancers
[2]; anti-CA125 positive samples of patients injected with MAb-B43.13, positive = inhibition at least 15%
  Inhibition, No. of Positives/Total: 26/28
[2]; anti-CA125 positive samples
  Inhibition, positives (%): (92.8) %
[3]
  STIMULATION INDEX: 2.76

## tetanus toxoid
[4]
  increase in processing and presentation of the antigen: 10-1000 -fold
